Drawing on patent US20200199241A1 (Chugai, published 2020), this text covers relative binding activity for nine molecules.

Holding throughout (experiment): SPR (Biacore);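 also: antibody variants captured on sensor chip, Fcγ receptor flowed over at 25 °C, bound receptor normalized to amount of captured antibody, expressed relative to reference antibody set as 100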
One test concerns the target T1, human FcγRIIb (human, UniProt P31994 43-217, limits assumed).
T1 construct: also called FcgRIIb
T1 sequence: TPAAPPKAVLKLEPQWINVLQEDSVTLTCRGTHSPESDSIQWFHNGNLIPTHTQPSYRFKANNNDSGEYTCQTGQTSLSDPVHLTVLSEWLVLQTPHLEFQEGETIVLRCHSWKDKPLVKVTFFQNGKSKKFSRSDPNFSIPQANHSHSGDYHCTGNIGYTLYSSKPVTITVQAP

The target in the next test is T2, human FcγRIIIa(F) (human, UniProt P08637 17-208, limits assumed).
T2 construct: also called FcgRIIIaF; allotype F158
T2 sequence (P08637 other isoform, or with tags, fused parts or gaps limits assumed): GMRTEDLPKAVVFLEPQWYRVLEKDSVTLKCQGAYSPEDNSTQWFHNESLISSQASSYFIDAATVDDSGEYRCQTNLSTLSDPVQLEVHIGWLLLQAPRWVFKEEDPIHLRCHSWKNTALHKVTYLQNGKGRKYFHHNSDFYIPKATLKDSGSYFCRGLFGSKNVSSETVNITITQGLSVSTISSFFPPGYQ

The target in a further test is T3, human FcγRIIa(H) (human, UniProt P12318 36-217).
T3 construct: also called FcgRIIaH; FcγRIIa type H
T3 sequence: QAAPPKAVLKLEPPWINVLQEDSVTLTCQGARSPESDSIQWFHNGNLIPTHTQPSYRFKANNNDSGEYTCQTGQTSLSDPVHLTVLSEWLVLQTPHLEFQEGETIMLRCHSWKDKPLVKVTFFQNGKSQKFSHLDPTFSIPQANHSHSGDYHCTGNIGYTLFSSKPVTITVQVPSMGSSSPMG

A further test deals with T4, human FcγRIa (human, UniProt P12314 16-292, limits assumed).
T4 construct: also called FcgRIa; FcγRI (CD64)
T4 sequence (P12314 16-292 limits assumed): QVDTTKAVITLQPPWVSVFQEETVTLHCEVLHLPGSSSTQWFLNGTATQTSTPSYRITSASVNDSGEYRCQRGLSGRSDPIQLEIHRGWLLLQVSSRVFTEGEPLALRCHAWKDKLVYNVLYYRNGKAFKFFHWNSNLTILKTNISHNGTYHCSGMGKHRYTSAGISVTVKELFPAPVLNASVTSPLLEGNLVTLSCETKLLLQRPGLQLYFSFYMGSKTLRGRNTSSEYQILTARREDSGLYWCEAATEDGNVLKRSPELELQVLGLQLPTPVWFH

For another test, the target named is T5, human FcγRIIa(R) (human, UniProt P12318 36-217).
T5 construct: also called FcgRIIaR; FcγRIIa type R
T5 chain: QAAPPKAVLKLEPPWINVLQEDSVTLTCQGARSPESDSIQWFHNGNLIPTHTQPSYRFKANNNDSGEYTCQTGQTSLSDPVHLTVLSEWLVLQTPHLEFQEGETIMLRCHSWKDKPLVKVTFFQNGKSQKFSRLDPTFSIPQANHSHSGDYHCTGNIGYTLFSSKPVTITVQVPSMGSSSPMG

B1: GpH7-B3 variant L234N/GpL16-k0 (antibody, human IgG1)
heavy: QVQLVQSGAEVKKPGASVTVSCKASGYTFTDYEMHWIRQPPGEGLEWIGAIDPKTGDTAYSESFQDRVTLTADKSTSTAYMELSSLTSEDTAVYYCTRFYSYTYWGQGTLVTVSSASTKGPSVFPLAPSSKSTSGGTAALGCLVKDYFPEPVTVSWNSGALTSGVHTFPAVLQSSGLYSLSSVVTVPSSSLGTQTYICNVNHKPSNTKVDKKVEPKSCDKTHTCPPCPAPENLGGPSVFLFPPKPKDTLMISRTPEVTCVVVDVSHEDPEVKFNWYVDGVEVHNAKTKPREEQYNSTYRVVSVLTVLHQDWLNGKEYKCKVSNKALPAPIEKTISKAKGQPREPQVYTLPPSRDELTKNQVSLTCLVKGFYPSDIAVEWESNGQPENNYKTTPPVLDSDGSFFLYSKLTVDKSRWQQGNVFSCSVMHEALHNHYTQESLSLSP
light: DIVMTQSPLSLPVTPGEPASISCQASESLVHSNRNTYLHWYLQKPGQSPQLLIYKVSNRFSGVPDRFSGSGSGTDFTLKISRVEAEDVGVYYCSQNTHVPPTFGQGTKVEIE
notes: copies: 2 + 2
Take B1: the relative binding activity with human FcγRIIb was 44 % of GpH7-B3/GpL16-k0; in the test with human FcγRIIIa(F) it was 47 % of GpH7-B3/GpL16-k0; with human FcγRIIa(H), 35 % of GpH7-B3/GpL16-k0; in the test with human FcγRIa it was 67 % of GpH7-B3/GpL16-k0; with human FcγRIIa(R) it was 36 % of GpH7-B3/GpL16-k0.

B2: GpH7-B3 variant L235P/GpL16-k0 (antibody, human IgG1)
heavy: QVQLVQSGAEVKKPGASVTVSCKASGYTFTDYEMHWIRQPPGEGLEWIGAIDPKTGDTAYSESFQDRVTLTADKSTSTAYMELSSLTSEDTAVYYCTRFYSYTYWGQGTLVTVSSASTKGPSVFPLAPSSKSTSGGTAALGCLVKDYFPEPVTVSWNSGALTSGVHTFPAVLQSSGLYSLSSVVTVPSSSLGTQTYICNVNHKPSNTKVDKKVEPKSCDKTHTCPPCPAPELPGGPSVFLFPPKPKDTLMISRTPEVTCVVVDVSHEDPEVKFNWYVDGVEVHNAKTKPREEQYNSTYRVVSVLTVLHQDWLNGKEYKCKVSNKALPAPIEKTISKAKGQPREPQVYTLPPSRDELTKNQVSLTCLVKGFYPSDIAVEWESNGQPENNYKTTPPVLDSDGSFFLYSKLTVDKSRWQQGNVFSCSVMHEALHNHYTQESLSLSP
light: DIVMTQSPLSLPVTPGEPASISCQASESLVHSNRNTYLHWYLQKPGQSPQLLIYKVSNRFSGVPDRFSGSGSGTDFTLKISRVEAEDVGVYYCSQNTHVPPTFGQGTKVEIE
notes: copies: 2 + 2
As for B2, the relative binding activity in the test with human FcγRIIb is 32 % of GpH7-B3/GpL16-k0; with human FcγRIIIa(F), 47 % of GpH7-B3/GpL16-k0; with human FcγRIIa(H), 33 % of GpH7-B3/GpL16-k0; with human FcγRIa, 3 % of GpH7-B3/GpL16-k0; with human FcγRIIa(R) it was 38 % of GpH7-B3/GpL16-k0.

B3: GpH7-B3 variant L235G/GpL16-k0 (antibody, human IgG1)
heavy: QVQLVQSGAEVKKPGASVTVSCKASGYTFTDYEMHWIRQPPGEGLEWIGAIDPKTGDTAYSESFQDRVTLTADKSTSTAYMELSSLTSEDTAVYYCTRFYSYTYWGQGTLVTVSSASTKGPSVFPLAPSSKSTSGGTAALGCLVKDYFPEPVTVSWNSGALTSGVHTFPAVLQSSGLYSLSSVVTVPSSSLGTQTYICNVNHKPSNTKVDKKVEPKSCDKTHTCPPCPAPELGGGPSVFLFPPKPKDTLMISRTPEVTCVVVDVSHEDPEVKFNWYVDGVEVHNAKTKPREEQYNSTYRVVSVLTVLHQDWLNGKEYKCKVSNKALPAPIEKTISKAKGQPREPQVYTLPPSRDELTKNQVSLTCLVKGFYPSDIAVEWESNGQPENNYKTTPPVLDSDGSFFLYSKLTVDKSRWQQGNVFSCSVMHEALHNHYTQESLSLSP
light: DIVMTQSPLSLPVTPGEPASISCQASESLVHSNRNTYLHWYLQKPGQSPQLLIYKVSNRFSGVPDRFSGSGSGTDFTLKISRVEAEDVGVYYCSQNTHVPPTFGQGTKVEIE
notes: copies: 2 + 2
In the case of B3, the relative binding activity with human FcγRIIb is 3 % of GpH7-B3/GpL16-k0; with human FcγRIIIa(F), 13 % of GpH7-B3/GpL16-k0; with human FcγRIIa(H), 7 % of GpH7-B3/GpL16-k0; with human FcγRIa it was 16 % of GpH7-B3/GpL16-k0; with human FcγRIIa(R), 6 % of GpH7-B3/GpL16-k0.

B4: GpH7-B3 variant L235D/GpL16-k0 (antibody, human IgG1)
heavy: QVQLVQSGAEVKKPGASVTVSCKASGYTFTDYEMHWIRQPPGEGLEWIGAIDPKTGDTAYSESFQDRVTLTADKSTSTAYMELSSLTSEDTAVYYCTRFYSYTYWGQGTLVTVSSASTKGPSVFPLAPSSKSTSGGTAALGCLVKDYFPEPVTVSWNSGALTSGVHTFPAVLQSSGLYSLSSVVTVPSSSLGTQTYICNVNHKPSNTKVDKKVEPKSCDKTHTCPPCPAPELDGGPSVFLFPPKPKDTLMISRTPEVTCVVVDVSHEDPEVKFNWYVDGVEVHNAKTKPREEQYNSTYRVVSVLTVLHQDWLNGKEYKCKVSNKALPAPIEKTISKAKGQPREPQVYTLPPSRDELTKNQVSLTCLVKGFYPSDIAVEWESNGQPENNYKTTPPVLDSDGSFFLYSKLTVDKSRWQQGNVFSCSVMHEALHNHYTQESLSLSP
light: DIVMTQSPLSLPVTPGEPASISCQASESLVHSNRNTYLHWYLQKPGQSPQLLIYKVSNRFSGVPDRFSGSGSGTDFTLKISRVEAEDVGVYYCSQNTHVPPTFGQGTKVEIE
notes: copies: 2 + 2
On to B4, for which the relative binding activity with human FcγRIIb is 88 % of GpH7-B3/GpL16-k0; with human FcγRIIIa(F), 60 % of GpH7-B3/GpL16-k0; in the test with human FcγRIIa(H) it was 60 % of GpH7-B3/GpL16-k0; with human FcγRIa, 1 % of GpH7-B3/GpL16-k0; in the test with human FcγRIIa(R), 87 % of GpH7-B3/GpL16-k0.

B5: GpH7-B3 variant L234T/GpL16-k0 (antibody, human IgG1)
heavy: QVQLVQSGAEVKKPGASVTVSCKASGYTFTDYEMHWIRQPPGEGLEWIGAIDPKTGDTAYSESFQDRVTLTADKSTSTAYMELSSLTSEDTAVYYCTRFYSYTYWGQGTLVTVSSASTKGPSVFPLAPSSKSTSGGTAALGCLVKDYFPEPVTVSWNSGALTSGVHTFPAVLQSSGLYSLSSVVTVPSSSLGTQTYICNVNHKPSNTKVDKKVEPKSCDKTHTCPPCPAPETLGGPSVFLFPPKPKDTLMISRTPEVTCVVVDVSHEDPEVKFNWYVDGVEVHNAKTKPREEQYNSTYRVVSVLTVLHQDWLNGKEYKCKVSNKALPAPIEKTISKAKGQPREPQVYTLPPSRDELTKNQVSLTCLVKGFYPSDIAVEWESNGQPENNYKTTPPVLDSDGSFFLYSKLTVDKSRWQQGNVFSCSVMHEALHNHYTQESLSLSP
light: DIVMTQSPLSLPVTPGEPASISCQASESLVHSNRNTYLHWYLQKPGQSPQLLIYKVSNRFSGVPDRFSGSGSGTDFTLKISRVEAEDVGVYYCSQNTHVPPTFGQGTKVEIE
notes: copies: 2 + 2
B5: the relative binding activity in the test with human FcγRIIb was 27 % of GpH7-B3/GpL16-k0; with human FcγRIIIa(F), 30 % of GpH7-B3/GpL16-k0; with human FcγRIIa(H), 30 % of GpH7-B3/GpL16-k0; in the test with human FcγRIa it was 93 % of GpH7-B3/GpL16-k0; with human FcγRIIa(R), 33 % of GpH7-B3/GpL16-k0.

B6: GpH7-B3 variant L235K/GpL16-k0 (antibody, human IgG1)
heavy: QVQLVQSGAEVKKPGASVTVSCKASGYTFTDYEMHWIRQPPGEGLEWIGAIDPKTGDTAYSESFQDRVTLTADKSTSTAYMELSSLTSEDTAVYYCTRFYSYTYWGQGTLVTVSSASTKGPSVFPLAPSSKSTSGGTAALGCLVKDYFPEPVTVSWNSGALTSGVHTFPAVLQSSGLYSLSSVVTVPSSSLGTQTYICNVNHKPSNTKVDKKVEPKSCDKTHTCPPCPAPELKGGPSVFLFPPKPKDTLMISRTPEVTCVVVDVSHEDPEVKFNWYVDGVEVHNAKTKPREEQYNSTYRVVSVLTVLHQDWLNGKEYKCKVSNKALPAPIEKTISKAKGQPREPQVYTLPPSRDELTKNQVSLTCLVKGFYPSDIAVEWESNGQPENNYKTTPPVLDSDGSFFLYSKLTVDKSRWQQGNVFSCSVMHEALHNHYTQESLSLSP
light: DIVMTQSPLSLPVTPGEPASISCQASESLVHSNRNTYLHWYLQKPGQSPQLLIYKVSNRFSGVPDRFSGSGSGTDFTLKISRVEAEDVGVYYCSQNTHVPPTFGQGTKVEIE
notes: copies: 2 + 2
Regarding B6, the relative binding activity with human FcγRIIb was -3 % of GpH7-B3/GpL16-k0; in the test with human FcγRIIIa(F) it was 6 % of GpH7-B3/GpL16-k0; with human FcγRIIa(H), 0 % of GpH7-B3/GpL16-k0; with human FcγRIa, -1 % of GpH7-B3/GpL16-k0; with human FcγRIIa(R), -5 % of GpH7-B3/GpL16-k0.

B7: GpH7-B3 variant L235H/GpL16-k0 (antibody, human IgG1)
heavy: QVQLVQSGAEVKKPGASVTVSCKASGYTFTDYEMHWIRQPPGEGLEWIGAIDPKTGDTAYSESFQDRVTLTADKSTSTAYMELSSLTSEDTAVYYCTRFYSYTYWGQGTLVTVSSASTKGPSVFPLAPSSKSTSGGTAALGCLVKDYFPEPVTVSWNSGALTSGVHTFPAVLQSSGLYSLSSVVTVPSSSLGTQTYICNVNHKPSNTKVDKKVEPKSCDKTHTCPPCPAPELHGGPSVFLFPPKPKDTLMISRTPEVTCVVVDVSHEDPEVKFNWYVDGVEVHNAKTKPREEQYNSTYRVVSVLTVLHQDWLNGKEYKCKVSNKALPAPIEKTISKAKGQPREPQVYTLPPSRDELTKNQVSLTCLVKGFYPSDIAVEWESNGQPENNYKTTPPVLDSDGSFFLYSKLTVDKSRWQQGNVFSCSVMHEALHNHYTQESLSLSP
light: DIVMTQSPLSLPVTPGEPASISCQASESLVHSNRNTYLHWYLQKPGQSPQLLIYKVSNRFSGVPDRFSGSGSGTDFTLKISRVEAEDVGVYYCSQNTHVPPTFGQGTKVEIE
notes: copies: 2 + 2
For the molecule B7, the relative binding activity in the test with human FcγRIIb is 66 % of GpH7-B3/GpL16-k0; with human FcγRIIIa(F), 28 % of GpH7-B3/GpL16-k0; with human FcγRIIa(H), 88 % of GpH7-B3/GpL16-k0; in the test with human FcγRIa it was 2 % of GpH7-B3/GpL16-k0; with human FcγRIIa(R) it was 91 % of GpH7-B3/GpL16-k0.

B8: GpH7-B3 variant L235M/GpL16-k0 (antibody, human IgG1)
heavy: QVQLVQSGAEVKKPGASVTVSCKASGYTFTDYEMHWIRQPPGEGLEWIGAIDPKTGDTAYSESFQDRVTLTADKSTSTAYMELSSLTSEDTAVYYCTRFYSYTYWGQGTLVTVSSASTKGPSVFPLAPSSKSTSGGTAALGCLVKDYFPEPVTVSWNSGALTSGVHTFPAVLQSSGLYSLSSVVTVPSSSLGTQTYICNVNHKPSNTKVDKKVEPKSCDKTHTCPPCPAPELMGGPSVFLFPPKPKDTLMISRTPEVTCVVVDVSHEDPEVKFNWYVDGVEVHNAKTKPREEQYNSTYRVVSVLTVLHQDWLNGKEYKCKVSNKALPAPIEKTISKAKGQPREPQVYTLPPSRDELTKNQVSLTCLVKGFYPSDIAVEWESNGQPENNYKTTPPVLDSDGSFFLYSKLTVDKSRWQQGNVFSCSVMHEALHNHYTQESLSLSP
light: DIVMTQSPLSLPVTPGEPASISCQASESLVHSNRNTYLHWYLQKPGQSPQLLIYKVSNRFSGVPDRFSGSGSGTDFTLKISRVEAEDVGVYYCSQNTHVPPTFGQGTKVEIE
notes: copies: 2 + 2
As for B8, the relative binding activity with human FcγRIIb is 63 % of GpH7-B3/GpL16-k0; in the test with human FcγRIIIa(F) it was 42 % of GpH7-B3/GpL16-k0; in the test with human FcγRIIa(H) it was 72 % of GpH7-B3/GpL16-k0; in the test with human FcγRIa, 93 % of GpH7-B3/GpL16-k0; with human FcγRIIa(R) it was 72 % of GpH7-B3/GpL16-k0.

B9: GpH7-B3 variant L235A/GpL16-k0 (antibody, human IgG1)
heavy: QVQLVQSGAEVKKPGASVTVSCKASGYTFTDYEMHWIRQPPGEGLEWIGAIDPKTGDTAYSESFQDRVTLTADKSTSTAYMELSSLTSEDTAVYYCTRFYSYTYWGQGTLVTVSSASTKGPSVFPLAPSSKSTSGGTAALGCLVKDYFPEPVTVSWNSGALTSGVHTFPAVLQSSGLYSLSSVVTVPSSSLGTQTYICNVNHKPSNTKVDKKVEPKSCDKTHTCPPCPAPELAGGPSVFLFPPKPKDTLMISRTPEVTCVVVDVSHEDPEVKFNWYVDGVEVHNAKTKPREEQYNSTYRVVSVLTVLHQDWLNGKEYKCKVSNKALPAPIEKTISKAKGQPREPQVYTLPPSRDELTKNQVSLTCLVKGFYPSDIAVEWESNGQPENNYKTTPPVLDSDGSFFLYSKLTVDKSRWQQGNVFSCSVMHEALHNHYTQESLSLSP
light: DIVMTQSPLSLPVTPGEPASISCQASESLVHSNRNTYLHWYLQKPGQSPQLLIYKVSNRFSGVPDRFSGSGSGTDFTLKISRVEAEDVGVYYCSQNTHVPPTFGQGTKVEIE
notes: copies: 2 + 2
Consider B9, for which the relative binding activity was 37 % of GpH7-B3/GpL16-k0 with human FcγRIIb; 49 % of GpH7-B3/GpL16-k0 in the test with human FcγRIIIa(F); 48 % of GpH7-B3/GpL16-k0 in the test with human FcγRIIa(H); 66 % of GpH7-B3/GpL16-k0 in the test with human FcγRIa; 50 % of GpH7-B3/GpL16-k0 with human FcγRIIa(R).
